This is an account of results in PMC10786891, “Massively parallel profiling of RNA-targeting CRISPR-Cas13d”.

T1: EsCas13d, nuclease-dead (Eubacterium siraeum, UniProt B0MS50, R295A;H300A;R849A;H854A)
T1 sequence: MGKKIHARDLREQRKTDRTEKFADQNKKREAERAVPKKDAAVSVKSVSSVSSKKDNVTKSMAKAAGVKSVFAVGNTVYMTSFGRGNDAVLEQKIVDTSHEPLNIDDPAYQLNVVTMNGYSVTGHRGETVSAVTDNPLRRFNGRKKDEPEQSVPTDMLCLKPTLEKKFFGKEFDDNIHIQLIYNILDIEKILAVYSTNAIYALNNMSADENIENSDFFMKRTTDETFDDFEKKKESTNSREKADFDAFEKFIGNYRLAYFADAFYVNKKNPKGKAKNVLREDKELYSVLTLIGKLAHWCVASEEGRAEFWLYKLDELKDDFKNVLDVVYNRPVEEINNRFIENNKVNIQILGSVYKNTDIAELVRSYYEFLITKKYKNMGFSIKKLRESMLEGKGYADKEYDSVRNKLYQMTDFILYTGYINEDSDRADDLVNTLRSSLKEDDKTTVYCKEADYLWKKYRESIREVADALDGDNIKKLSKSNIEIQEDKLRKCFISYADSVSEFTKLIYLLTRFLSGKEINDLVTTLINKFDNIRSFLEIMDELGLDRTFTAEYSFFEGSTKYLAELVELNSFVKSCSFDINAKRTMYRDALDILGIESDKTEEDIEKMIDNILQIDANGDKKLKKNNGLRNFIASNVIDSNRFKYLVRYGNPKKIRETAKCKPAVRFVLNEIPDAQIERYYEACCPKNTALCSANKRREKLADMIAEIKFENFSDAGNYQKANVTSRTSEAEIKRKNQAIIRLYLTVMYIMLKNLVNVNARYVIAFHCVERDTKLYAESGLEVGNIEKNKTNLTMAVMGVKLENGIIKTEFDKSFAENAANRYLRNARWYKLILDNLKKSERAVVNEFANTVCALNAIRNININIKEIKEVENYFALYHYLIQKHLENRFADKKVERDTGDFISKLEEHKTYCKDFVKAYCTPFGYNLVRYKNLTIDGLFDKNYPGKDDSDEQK

B1: target 1 U11A,A14G (mixed)
RNA 1: CACCCGUGCAAAAAUGCAGGGGUCUAAAACUGAGCGGAUAACCUCUCUAUGG
RNA 2: GGGAAUGGAUCCACAUCUACGAAUUCGUACCAUAGAGGGGAUAUCCGCUCACCGAGAUCGGAAGAGCACACGU
B2: target 1 insA 3' of 21,insC 3' of 11 (mixed)
RNA 1: CACCCGUGCAAAAAUGCAGGGGUCUAAAACUGAGCGGAUAACCUCUCUAUGG
RNA 2: GGGAAUGGAUCCACAUCUACGAAUUCGUACCAAUAGAGAGGUCUAUCCGCUCACCGAGAUCGGAAGAGCACACGU
B3: target 1 insA 3' of 4,insG 3' of 4 (mixed)
RNA 1: CACCCGUGCAAAAAUGCAGGGGUCUAAAACUGAGCGGAUAACCUCUCUAUGG
RNA 2: GGGAAUGGAUCCACAUCUACGAAUUCGUACCAUAGAGAGGUUAUCCGCAGUCACCGAGAUCGGAAGAGCACACGU
B4: target 1 A1U,C7G (mixed)
RNA 1: CACCCGUGCAAAAAUGCAGGGGUCUAAAACUGAGCGGAUAACCUCUCUAUGG
RNA 2: GGGAAUGGAUCCACAUCUACGAAUUCGUACCAUAGAGAGGUUAUGCGCUCUCCGAGAUCGGAAGAGCACACGU
B5: target 2 MT 5'PFS CAC 3'PFS ACG (mixed)
RNA 1: CACCCGUGCAAAAUUGCAGGGGUCUAAAACCUUCUCCAAAUUGUUUCAUCCU
RNA 2: GGGAAUGGAUCCACAUCUACGAAUUCCACAGGAUGAAACAAUUUGGAGAAGACGAGAUCGGAAGAGCACACGU
B6: target 2 MT 5'PFS UAU 3'PFS AGA (mixed)
RNA 1: CACCCGUGCAAAAUUGCAGGGGUCUAAAACCUUCUCCAAAUUGUUUCAUCCU
RNA 2: GGGAAUGGAUCCACAUCUACGAAUUCUAUAGGAUGAAACAAUUUGGAGAAGAGAAGAUCGGAAGAGCACACGU
B7: target 2 MT 5'PFS UAU 3'PFS CGC (mixed)
RNA 1: CACCCGUGCAAAAUUGCAGGGGUCUAAAACCUUCUCCAAAUUGUUUCAUCCU
RNA 2: GGGAAUGGAUCCACAUCUACGAAUUCUAUAGGAUGAAACAAUUUGGAGAAGCGCAGAUCGGAAGAGCACACGU
B8: target 2 MT 5'PFS AAG 3'PFS ACC (mixed)
RNA 1: CACCCGUGCAAAAUUGCAGGGGUCUAAAACCUUCUCCAAAUUGUUUCAUCCU
RNA 2: GGGAAUGGAUCCACAUCUACGAAUUCAAGAGGAUGAAACAAUUUGGAGAAGACCAGAUCGGAAGAGCACACGU
B9: target 2 MT 5'PFS UAU 3'PFS CGU (mixed)
RNA 1: CACCCGUGCAAAAUUGCAGGGGUCUAAAACCUUCUCCAAAUUGUUUCAUCCU
RNA 2: GGGAAUGGAUCCACAUCUACGAAUUCUAUAGGAUGAAACAAUUUGGAGAAGCGUAGAUCGGAAGAGCACACGU
B10: target 2 MT 5'PFS UAU 3'PFS GCC (mixed)
RNA 1: CACCCGUGCAAAAUUGCAGGGGUCUAAAACCUUCUCCAAAUUGUUUCAUCCU
RNA 2: GGGAAUGGAUCCACAUCUACGAAUUCUAUAGGAUGAAACAAUUUGGAGAAGGCCAGAUCGGAAGAGCACACGU
B11: target 2 MT 5'PFS UUA 3'PFS UGC (mixed)
RNA 1: CACCCGUGCAAAAUUGCAGGGGUCUAAAACCUUCUCCAAAUUGUUUCAUCCU
RNA 2: GGGAAUGGAUCCACAUCUACGAAUUCUUAAGGAUGAAACAAUUUGGAGAAGUGCAGAUCGGAAGAGCACACGU
B12: target 2 MT 5'PFS ACG 3'PFS CGC (mixed)
RNA 1: CACCCGUGCAAAAUUGCAGGGGUCUAAAACCUUCUCCAAAUUGUUUCAUCCU
RNA 2: GGGAAUGGAUCCACAUCUACGAAUUCACGAGGAUGAAACAAUUUGGAGAAGCGCAGAUCGGAAGAGCACACGU
B13: target 2 MT 5'PFS UAU 3'PFS CGG (mixed)
RNA 1: CACCCGUGCAAAAUUGCAGGGGUCUAAAACCUUCUCCAAAUUGUUUCAUCCU
RNA 2: GGGAAUGGAUCCACAUCUACGAAUUCUAUAGGAUGAAACAAUUUGGAGAAGCGGAGAUCGGAAGAGCACACGU
B14: target 2 MT 5'PFS CAC 3'PFS ACU (mixed)
RNA 1: CACCCGUGCAAAAUUGCAGGGGUCUAAAACCUUCUCCAAAUUGUUUCAUCCU
RNA 2: GGGAAUGGAUCCACAUCUACGAAUUCCACAGGAUGAAACAAUUUGGAGAAGACUAGAUCGGAAGAGCACACGU
B15: target 2 MT 5'PFS UAU 3'PFS AGU (mixed)
RNA 1: CACCCGUGCAAAAUUGCAGGGGUCUAAAACCUUCUCCAAAUUGUUUCAUCCU
RNA 2: GGGAAUGGAUCCACAUCUACGAAUUCUAUAGGAUGAAACAAUUUGGAGAAGAGUAGAUCGGAAGAGCACACGU
B16: target 2 MT 5'PFS AAG 3'PFS ACA (mixed)
RNA 1: CACCCGUGCAAAAUUGCAGGGGUCUAAAACCUUCUCCAAAUUGUUUCAUCCU
RNA 2: GGGAAUGGAUCCACAUCUACGAAUUCAAGAGGAUGAAACAAUUUGGAGAAGACAAGAUCGGAAGAGCACACGU
B17: target 2 MT 5'PFS GCA 3'PFS UGU (mixed)
RNA 1: CACCCGUGCAAAAUUGCAGGGGUCUAAAACCUUCUCCAAAUUGUUUCAUCCU
RNA 2: GGGAAUGGAUCCACAUCUACGAAUUCGCAAGGAUGAAACAAUUUGGAGAAGUGUAGAUCGGAAGAGCACACGU
B18: target 2 MT 5'PFS GCA 3'PFS UGA (mixed)
RNA 1: CACCCGUGCAAAAUUGCAGGGGUCUAAAACCUUCUCCAAAUUGUUUCAUCCU
RNA 2: GGGAAUGGAUCCACAUCUACGAAUUCGCAAGGAUGAAACAAUUUGGAGAAGUGAAGAUCGGAAGAGCACACGU
B19: target 2 MT 5'PFS CAC 3'PFS ACA (mixed)
RNA 1: CACCCGUGCAAAAUUGCAGGGGUCUAAAACCUUCUCCAAAUUGUUUCAUCCU
RNA 2: GGGAAUGGAUCCACAUCUACGAAUUCCACAGGAUGAAACAAUUUGGAGAAGACAAGAUCGGAAGAGCACACGU
B20: target 2 MT 5'PFS AUU 3'PFS UAA (mixed)
RNA 1: CACCCGUGCAAAAUUGCAGGGGUCUAAAACCUUCUCCAAAUUGUUUCAUCCU
RNA 2: GGGAAUGGAUCCACAUCUACGAAUUCAUUAGGAUGAAACAAUUUGGAGAAGUAAAGAUCGGAAGAGCACACGU
B21: target 2 MT 5'PFS UAU 3'PFS AGG (mixed)
RNA 1: CACCCGUGCAAAAUUGCAGGGGUCUAAAACCUUCUCCAAAUUGUUUCAUCCU
RNA 2: GGGAAUGGAUCCACAUCUACGAAUUCUAUAGGAUGAAACAAUUUGGAGAAGAGGAGAUCGGAAGAGCACACGU
B22: target 2 MT 5'PFS GCA 3'PFS UGC (mixed)
RNA 1: CACCCGUGCAAAAUUGCAGGGGUCUAAAACCUUCUCCAAAUUGUUUCAUCCU
RNA 2: GGGAAUGGAUCCACAUCUACGAAUUCGCAAGGAUGAAACAAUUUGGAGAAGUGCAGAUCGGAAGAGCACACGU
B23: target 2 MT 5'PFS ACG 3'PFS CGA (mixed)
RNA 1: CACCCGUGCAAAAUUGCAGGGGUCUAAAACCUUCUCCAAAUUGUUUCAUCCU
RNA 2: GGGAAUGGAUCCACAUCUACGAAUUCACGAGGAUGAAACAAUUUGGAGAAGCGAAGAUCGGAAGAGCACACGU
B24: target 2 MT 5'PFS UAU 3'PFS CGA (mixed)
RNA 1: CACCCGUGCAAAAUUGCAGGGGUCUAAAACCUUCUCCAAAUUGUUUCAUCCU
RNA 2: GGGAAUGGAUCCACAUCUACGAAUUCUAUAGGAUGAAACAAUUUGGAGAAGCGAAGAUCGGAAGAGCACACGU
B25: target 2 MT 5'PFS GUG 3'PFS CAU (mixed)
RNA 1: CACCCGUGCAAAAUUGCAGGGGUCUAAAACCUUCUCCAAAUUGUUUCAUCCU
RNA 2: GGGAAUGGAUCCACAUCUACGAAUUCGUGAGGAUGAAACAAUUUGGAGAAGCAUAGAUCGGAAGAGCACACGU
B26: target 2 MT 5'PFS UAU 3'PFS AGC (mixed)
RNA 1: CACCCGUGCAAAAUUGCAGGGGUCUAAAACCUUCUCCAAAUUGUUUCAUCCU
RNA 2: GGGAAUGGAUCCACAUCUACGAAUUCUAUAGGAUGAAACAAUUUGGAGAAGAGCAGAUCGGAAGAGCACACGU
B27: target 2 MT 5'PFS AAG 3'PFS ACG (mixed)
RNA 1: CACCCGUGCAAAAUUGCAGGGGUCUAAAACCUUCUCCAAAUUGUUUCAUCCU
RNA 2: GGGAAUGGAUCCACAUCUACGAAUUCAAGAGGAUGAAACAAUUUGGAGAAGACGAGAUCGGAAGAGCACACGU

In this series the target is T1, EsCas13d, nuclease-dead. The series is described as follows: crRNA (strand 1, pre-loaded); Mg2+; 40 mM Tris-HCl pH 7.5, 150 mM NaCl, 6 mM MgCl2, 1 mM DTT, 0.1% Tween-20, 0.2 mg/ml BSA; 25 C; 10 min per concentration, then washed. The settings on record: tags: His6-TwinStrep-SUMO cleaved; N-terminal SNAP kept (SNAP-Surface 488); label: 3' end held by stalled T7 RNA polymerase.
Take B1: the dissociation constant (Kd) worked out at 43 ± 4 nM.

For B2, the dissociation constant Kd was approximately 80 nM.

B3: the affinity, expressed as Kd, was 5.32 ± 0.26 nM.

On to B4, for which the Kd was 9.9 ± 0.8 nM.

Turning to B5, the Kd was 2.8 ± 0.8 nM.

In turn, B6 had a Kd of 21.1 ± 2.7 nM.

As for B7, binding was put at a Kd of 75 ± 13 nM. This Kd is about 3.6-fold higher than that of the molecule before.

Turning to B8, the Kd is approximately 27 nM.

B9: binding was put at a Kd of 15.6 ± 1.8 nM.

As for B10, the affinity, expressed as Kd, was 43 ± 20 nM.

For B11, the Kd came to 33 ± 9 nM.

For the molecule B12, the Kd is 8.2 ± 1.1 nM.

B13 came in with a Kd of 52 ± 11 nM.

Molecule B14 returned a Kd of 2.7 ± 1.1 nM.

In turn, B15 showed a Kd of 15.2 ± 1.6 nM.

B16 had an equilibrium dissociation constant (Kd) of 5 ± 0.9 nM.

As for B17, the dissociation constant Kd was 25 ± 5 nM.

As for B18, the Kd stood at 13 ± 4 nM.

The molecule B19 displayed a Kd of 2.5 ± 0.6 nM.

B20 had a Kd of 5.4 ± 0.8 nM.

Consider B21, for which the Kd worked out at 28.1 ± 3.3 nM.

Regarding B22, the Kd was found to be 12.7 ± 2.3 nM.

The molecule B23 had an equilibrium dissociation constant (Kd) of 8.5 ± 2.1 nM.

Take B24: the dissociation constant (Kd) came to 27 ± 1.9 nM. This Kd is about 3.2-fold higher than that of the molecule before.

Turning to B25, the Kd was found to be 9.2 ± 0.8 nM.

On to B26, for which the Kd turned out to be 21 ± 2.4 nM.

Consider B27, for which the Kd is 5.1 ± 0.9 nM.
